Laboratory results taken from patent US6379943, “High-efficiency Cre/loxp based system for construction of adenovirus vectors” (Merck & Co., Inc.).

B1: loxP linker AB3233/AB3234 (dsDNA)
DNA 1: GATCCAATAACTTCGTATAGCATACATTATACGAAGTTATAAGTACTGAATTCG
DNA 2: GATCCGAATTCAGTACTTATAACTTCGTATAATGTATGCTATACGAAGTTATTG

What was measured:
[1] = biological target: Cre recombinase (Bacteriophage P1?) (UniProt P06956); assay: cell_activity; settings: plasmids lacking lox; 5 plaques in 293 without Cre, homologous recombination background
Cre recombinase (Bacteriophage P1?), sequence (P06956 whole entry): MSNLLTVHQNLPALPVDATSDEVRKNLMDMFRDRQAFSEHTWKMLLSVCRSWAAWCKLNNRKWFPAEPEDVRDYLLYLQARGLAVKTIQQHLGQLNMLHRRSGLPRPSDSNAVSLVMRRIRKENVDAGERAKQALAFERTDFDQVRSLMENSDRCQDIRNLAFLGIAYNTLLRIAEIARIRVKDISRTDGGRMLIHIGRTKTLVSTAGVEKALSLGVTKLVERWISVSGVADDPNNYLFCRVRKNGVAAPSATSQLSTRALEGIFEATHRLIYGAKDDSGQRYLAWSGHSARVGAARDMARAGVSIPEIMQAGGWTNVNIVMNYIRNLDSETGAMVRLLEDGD

Cre recombinase = Cre recombinase (UniProt P06956 P06956:1-343); assay: cell_activity; pCA36lox x pBHG10lox cotransfection; 168 plaques in 293Cre4 vs 4 in 293 (12 dishes each); settings: tags: stably expressed in 293Cre4 cells; chain copies: 4; BamHI/BglII overhangs
Cre recombinase, sequence (P06956 whole entry, one chain of several): as the sequence (P06956 whole entry) above
From the text: The efficiency of Cre/lox mediated recombination was compared with that of homologous recombination, by measuring the numbers of virus plaques obtained from cotransfections of 293 cells versus the numbers obtained following cotransfections of 293Cre4 cells (see, for example, U.S. patent application Ser. No. 08/473,168, filed Jun. 7, 1995; see also WO96/40955, hereby incorporated by reference).
Coupled with the fact that the only infectious virus present in the transfected cell preparation are recombinants, rather than contaminating starting virus, the efficiency, cleanliness and convenience of this method in comparison to known methods represent significant advances in the art. Thus, with this new method it will be possible to reduce the amount of plasmid DNA used in cotransfections and reduce the number of dishes of 293 (293Cre) cells needed in cotransfections for rescue of viral vectors. It will also aid in the rescue of constructs which, for unknown reasons, might be otherwise difficult to rescue (e.g. rescue of vectors containing large foreign DNA inserts in E1 is often inefficient for reasons that are not known).

Row | Molecule | activity (plaques (12 dishes)) [1] | activity (Cre recombinase)
1 | no-lox plasmid pair pCA36:pBHG10 | 7 | –
2 | B1 | – | 35 fold over homologous recombination
